In the DeepSol protein solubility set:

Test: soluble on expression in E. coli; label from the status in PepcDB or PDB records

Sequence | soluble on expression in E. coli
MTGYPDVAAFDLDYTIWPCYCDTHLHGPFKPVKSSNGEVLTIICRDGYELTIYKDIPRILGDLKDNGVKLMTASRTWAPEIAQEILKIFKVKYAGVVTPLANLFDEFQWGERSKIGHLRDGLKDLYNTSDLKSKKICLFDDESRNKEVEKYGVKFVYVRDPENGPSWKLYQDYLSGKV | not soluble
MRMNSQWGFKMKILIMGFEYLPVKVGGLAEALTSIAEALASLGHEVLVFTPSHGRFQGSEIGIIKAFGGKVAIKVHLEENGNLRIYRIGGGLLDHQDVYGPGWEGLIRKTVIFGKASVLLLNELLKSEDLPDVLHFHDWHTVFAGALIKKYFRIPAVFTIHRLNKSKIPAFYFHEAGLPELAPYPDLDPEHTGGYIADIVTTVSRGYLLDEWDFFRNFNGKVTYVFNGIDCSFWNENYLKGSRKERRSSILAKFGMSDGITFMFIGRFDRRQKGVDTLLRAIELLSERPEFKEMRFIIIGMGDPELENWARELEKRYDNVRVLTEMLSREFVRELYGSVDFVIIPSYFEPFGLVSLEAMCLGAIPIASSVGGLRDVIVSIDEDHVDGTGLLVKPGDPWDLANAILRMHSIAMDNEFVEKLRDNCKKRAKSFSWENSAKRYLRAYKGNIDRIFDFAMLEHHHHHH | not soluble
MVSQRLHHRCDLVFFVVDSKHDQLNLDRFEFWQLTSQLLVLDVCLFDAFALEHHHHHH | not soluble
MAHHHHHHMLRFRVRLPKGKEPVSMDLDGTTTWGSFVQSISSLTDVPCSQLRILSGFPPRPVEVGDGAASIASVLPGGGNVIVQVGEADVVKGKTEGRYVPPVDGKWHFVRRVCPSDNSCLFHAAAYVLRNKSRVDGPSLRKECADIVQAYPNVFNEKTILDRPNREYVDFIRNPNAWGGAIELMVLSFLTQTEIVALDLTSSNVLHFGEDNNYTVRAYVVFNGQHYDAIAMNPMFNSPQESEDQVLFSSTDAEVLNRARRFVADEAKKLRLR | soluble
MSLTNEFEILKPGKLLLASANLLDPNFKRTVLLMCEHNEEGSIGFILNKPMEFKVCEAISGFDEIDEPLHMGGPVQVDTVHVLHTRGDVIDGAVEVIPGLFWGGDKEQLSYLINTGVIKASEVRFFLGYAGWSAGQLEAEFEEGSWYTADASSEQVFTDEYERMWSRSVRSKGGEYCYVANSPELPGMNEGHHHHHH | soluble
